Experimental data as given in US20160193299A1, “MODIFIED NUCLEOSIDE, NUCLEOTIDE, AND NUCLEIC ACID COMPOSITIONS” (Moderna Therapeutics, Inc., priority 2011, published 2016).

Key:
hematocrit (HCT) = assay: Example 22 non-human primate study, hematocrit (HCT); assay type: in vivo, cynomolgus monkey
Protocol: LNP formulations, shown in Table 31 (above), were administered to non-human primates (NHP) (cynomolgus monkey) (n=2) as intravenous injection (IV). The NHP were administered a single modified mRNA IV dose of 0.5 mg/kg, 0.05 mg/kg or 0.005 mg/kg of G-CSF or EPO in a dose volume of 0.5 mL/kg. The NHPs were bled before dosing with the modified mRNA LNP formulations to determine protein expression in the serum and a baseline complete blood count. After administration with the G-CSF modified mRNA formulation the NHP were bled at 8, 24, 48 and 72 hours to determined protein expression. After administration with the EPO modified mRNA formulation the NHP were bled at 8, 24, 48, 72 hours and 7 days to determined protein expression.

G-CSF = assay: Example 16 lipid nanoparticle in vivo study, serum G-CSF ELISA; parameters: species or system mice; settings: 100 ug
neutrophil count = assay: Example 40 multi-site IM and SC administration of G-CSF mRNA, neutrophil count; assay type: in vivo; settings: mice, intramuscular, day 3
Protocol: Injection of four doses or 2×50 ug (two sites) daily for three days (24 hrs interval) was performed. The fourth dose was administered 6 hrs before blood collection and CBC analysis. […] The mice were bled at 72 hours after the first mRNA injection (6 hours after the last mRNA dose) to determine the effect of mRNA-encoded human G-CSF on the neutrophil count. The dosing regimen is shown in Table 63 as are the resulting neutrophil counts (thousands/uL). In Table 63, an asterisks (*) indicate statistical significance at p<0.05.

B1: G-CSF: human G-CSF mRNA SEQ ID NO: 6, polyA ~160 nt, Cap1, fully modified with 5-methylcytosine and pseudouridine (nucleic acid, listed as Homo sapiens)
chain: GGGAAAUAAGAGAGAAAAGAAGAGUAAGAAGAAAUAUAAGAGCCACCAUGGCCGGUCCCGCGACCCAAAGCCCCAUGAAACUUAUGGCCCUGCAGUUGCUGCUUUGGCACUCGGCCCUCUGGACAGUCCAAGAAGCGACUCCUCUCGGACCUGCCUCAUCGUUGCCGCAGUCAUUCCUUUUGAAGUGUCUGGAGCAGGUGCGAAAGAUUCAGGGCGAUGGAGCCGCACUCCAAGAGAAGCUCUGCGCGACAUACAAACUUUGCCAUCCCGAGGAGCUCGUACUGCUCGGGCACAGCUUGGGGAUUCCCUGGGCUCCUCUCUCGUCCUGUCCGUCGCAGGCUUUGCAGUUGGCAGGGUGCCUUUCCCAGCUCCACUCCGGUUUGUUCUUGUAUCAGGGACUGCUGCAAGCCCUUGAGGGAAUCUCGCCAGAAUUGGGCCCGACGCUGGACACGUUGCAGCUCGACGUGGCGGAUUUCGCAACAACCAUCUGGCAGCAGAUGGAGGAACUGGGGAUGGCACCCGCGCUGCAGCCCACGCAGGGGGCAAUGCCGGCCUUUGCGUCCGCGUUUCAGCGCAGGGCGGGUGGAGUCCUCGUAGCGAGCCACCUUCAAUCAUUUUUGGAAGUCUCGUACCGGGUGCUGAGACAUCUUGCGCAGCCGUGAAGCGCUGCCUUCUGCGGGGCUUGCCUUCUGGCCAUGCCCUUCUUCUCUCCCUUGCACCUGUACCUCUUGGUCUUUGAAUAAAGCCUGAGUAGGAAG
modifications: polyA ~160, Cap1, 5mC/pseudouridine modified
With B1 the HCT (hematocrit (HCT); Female NHP, 0.005 mg/kg, 14/18 days) was 0.42 L/L, the HCT (hematocrit (HCT); Female NHP, 0.005 mg/kg, 24 hours) was 0.42 L/L and the HCT (hematocrit (HCT); Female NHP, 0.005 mg/kg, 3 days) was 0.41 L/L. It also gave an HCT (hematocrit (HCT); Female NHP, 0.005 mg/kg, 7 days) of 0.42 L/L, an HCT (hematocrit (HCT); Female NHP, 0.005 mg/kg, Pre-dose) of 0.42 L/L and an HCT (hematocrit (HCT); Female NHP, 0.05 mg/kg, 14/18 days) of 0.4 L/L. For the same molecule, the HCT (hematocrit (HCT); Female NHP, 0.05 mg/kg, 24 hours) was 0.4 L/L, the HCT (hematocrit (HCT); Female NHP, 0.05 mg/kg, 3 days) was 0.39 L/L and the HCT (hematocrit (HCT); Female NHP, 0.05 mg/kg, 7 days) was 0.4 L/L. The HCT (hematocrit (HCT); Female NHP, 0.05 mg/kg, Pre-dose) was 0.44 L/L, the HCT (hematocrit (HCT); Female NHP, 0.5 mg/kg, 14/18 days) was 0.37 L/L and the HCT (hematocrit (HCT); Female NHP, 0.5 mg/kg, 24 hours) was 0.38 L/L. For the same molecule, the HCT (hematocrit (HCT); Female NHP, 0.5 mg/kg, 3 days) was 0.38 L/L, the HCT (hematocrit (HCT); Female NHP, 0.5 mg/kg, 7 days) was 0.38 L/L and the HCT (hematocrit (HCT); Female NHP, 0.5 mg/kg, Pre-dose) was 0.43 L/L. For the same molecule, the HCT (hematocrit (HCT); Male NHP, 0.005 mg/kg, 14/18 days) was 0.41 L/L, the HCT (hematocrit (HCT); Male NHP, 0.005 mg/kg, 24 hours) was 0.4 L/L and the HCT (hematocrit (HCT); Male NHP, 0.005 mg/kg, 3 days) was 0.4 L/L. It also gave an HCT (hematocrit (HCT); Male NHP, 0.005 mg/kg, 7 days) of 0.39 L/L, an HCT (hematocrit (HCT); Male NHP, 0.005 mg/kg, Pre-dose) of 0.42 L/L and an HCT (hematocrit (HCT); Male NHP, 0.05 mg/kg, 14/18 days) of 0.44 L/L. For the same molecule, the HCT (hematocrit (HCT); Male NHP, 0.05 mg/kg, 24 hours) was 0.39 L/L, the HCT (hematocrit (HCT); Male NHP, 0.05 mg/kg, 3 days) was 0.41 L/L and the HCT (hematocrit (HCT); Male NHP, 0.05 mg/kg, 7 days) was 0.42 L/L. The HCT (hematocrit (HCT); Male NHP, 0.05 mg/kg, Pre-dose) was 0.44 L/L, the HCT (hematocrit (HCT); Male NHP, 0.5 mg/kg, 14/18 days) was 0.34 L/L and the HCT (hematocrit (HCT); Male NHP, 0.5 mg/kg, 24 hours) was 0.37 L/L. The HCT (hematocrit (HCT); Male NHP, 0.5 mg/kg, 3 days) was 0.39 L/L, the HCT (hematocrit (HCT); Male NHP, 0.5 mg/kg, 7 days) was 0.39 L/L and the HCT (hematocrit (HCT); Male NHP, 0.5 mg/kg, Pre-dose) was 0.46 L/L. For the same molecule, the “G-CSF Serum Concentration 8-12 hours after administration” value (shortened to “G-CSF Serum Concentration 8-12 hours”) (G-CSF; IM, saline) was roughly 20 to 80 pg/mL, the “G-CSF Serum Concentration 8-12 hours” value (G-CSF; IV (Lipoplex)) was roughly 30 pg/mL and the “G-CSF Serum Concentration 8-12 hours” value (G-CSF; SC, saline) was roughly 10 to 40 pg/mL. For the same molecule, the “increase in neutrophil count above control” value (neutrophil count) was “four fold increase”.
